From US20220227882A1 (TRUSTEES OF TUFTS COLLEGE, published 2022)

T1: Recombinant human ADAM12 (Acro Biosystems, AD2-H5228) (human, UniProt O43184 208-708)
T1 sequence (looked up): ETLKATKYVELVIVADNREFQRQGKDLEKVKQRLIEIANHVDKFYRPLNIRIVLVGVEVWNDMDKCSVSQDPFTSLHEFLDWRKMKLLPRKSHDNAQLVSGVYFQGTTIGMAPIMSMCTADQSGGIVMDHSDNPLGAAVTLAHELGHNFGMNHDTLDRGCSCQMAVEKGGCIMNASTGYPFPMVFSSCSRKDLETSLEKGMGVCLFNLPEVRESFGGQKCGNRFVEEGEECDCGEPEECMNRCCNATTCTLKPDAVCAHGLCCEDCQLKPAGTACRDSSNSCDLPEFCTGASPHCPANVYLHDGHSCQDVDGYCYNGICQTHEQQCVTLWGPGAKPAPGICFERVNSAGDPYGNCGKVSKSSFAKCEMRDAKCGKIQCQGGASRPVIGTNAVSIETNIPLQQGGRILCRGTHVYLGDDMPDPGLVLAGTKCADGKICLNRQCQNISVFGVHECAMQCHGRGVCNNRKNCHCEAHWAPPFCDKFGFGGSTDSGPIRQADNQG

T2: E444A (Homo sapiens, UniProt P78325)
T2 construct: expressed on HEK293 cells; also called human ADAM8 point mutant E444A
T2 sequence (ADAM8, looked up): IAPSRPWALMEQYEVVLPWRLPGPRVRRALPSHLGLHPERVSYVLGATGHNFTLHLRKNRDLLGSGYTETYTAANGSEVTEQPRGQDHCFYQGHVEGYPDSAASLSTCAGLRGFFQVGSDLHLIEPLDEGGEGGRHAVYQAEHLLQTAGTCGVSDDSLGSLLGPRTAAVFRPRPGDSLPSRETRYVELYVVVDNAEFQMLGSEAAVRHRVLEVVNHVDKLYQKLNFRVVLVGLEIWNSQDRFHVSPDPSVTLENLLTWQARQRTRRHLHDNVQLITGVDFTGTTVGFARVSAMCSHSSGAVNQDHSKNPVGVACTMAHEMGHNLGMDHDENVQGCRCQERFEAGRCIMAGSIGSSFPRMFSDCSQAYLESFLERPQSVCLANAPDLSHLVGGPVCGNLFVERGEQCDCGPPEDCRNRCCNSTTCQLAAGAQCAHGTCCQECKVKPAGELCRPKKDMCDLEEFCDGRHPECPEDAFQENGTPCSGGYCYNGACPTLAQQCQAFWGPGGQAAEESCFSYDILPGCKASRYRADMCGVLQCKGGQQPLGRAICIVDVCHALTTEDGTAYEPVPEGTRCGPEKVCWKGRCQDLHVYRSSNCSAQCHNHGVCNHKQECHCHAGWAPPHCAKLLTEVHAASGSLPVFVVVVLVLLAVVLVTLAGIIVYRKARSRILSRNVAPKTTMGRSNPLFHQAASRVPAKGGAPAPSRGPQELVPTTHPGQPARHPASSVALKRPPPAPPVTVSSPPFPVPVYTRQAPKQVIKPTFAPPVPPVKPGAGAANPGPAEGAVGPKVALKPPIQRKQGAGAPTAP


Experiments:
[1] = target: T1, Recombinant human ADAM12 (Acro …); assay: ELISA, recombinant ADAM12
Protocol: ELISA assays were also used to test hybridoma clones, subclones and purified ADP antibodies for specificity of ADAM8 binding, i.e., binding to rHuADAM8 (Acro Biosystems, AD8-H5223) was compared to binding to closely related recombinant human ADAM proteins: […], ADAM12 (Acro Biosystems, AD2-H5228) and ADAM15 (Sino Biological, 10517-H08H). For analysis of clones and subclones, 50 μl of cell supernatants were used. A test bleed sample (1:1000) was used as a positive control. Hybridoma culture medium or a pre-bleed serum sample (1:1000) was used as a negative control. Purified mouse ADPs were assessed at 1 μg/ml vs normal mouse IgG and with a test bleed sample as a positive control. ADP binding was detected with a goat anti-mouse IgG (Fc specific)-peroxidase antibody (1:5000, Sigma-Aldrich, A0168).

E444A = target: T2, E444A; assay: high-throughput flow cytometry, HEK293 cells with mutant ADAM8, high stringency; range in parentheses
Method in brief: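 HEK293 cells expressing WT or alanine-mutant ADAM8 were stained for 60 min with ADP2 Fab (0.50 μg/ml) or ADP13 Fab (5.00 μg/ml) in PBS with 10% goat serum under high-stringency conditions. Detection used an Alexa Fluor 488 secondary, with mean cellular fluorescence measured by high-throughput flow cytometry in duplicate.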

Binder | binding result [1] | Binding Reactivity (% WT) (E444A)
ADP3 (antibody, IgG1, V domains shown) VH: EVKLEESGGGLVQPGGSMKLSCAASGFTFSDAWMDWVRQSPEKGLEWVAEIRGKVNNLATYYVESVKGRFTISRDDSKSSVYLQMNSLRAEDTGIYYCLGRYDATYAMDYWGQGTSVTVSS VL: DVVMTQTPLSLPVSLGDQASISCRSSQSLVHSDGNTYLHWYLQKPGQSPKLLIYKLSNRFSGVPDRFSGSGSGTDFTLKISRVEAEDLGVYFCSQSTHVPWTFGGGTKLEIK | no binding (tested: 1 µg/ml) | 
ADP13 Fab (Fab, V domains shown) VH: EVQLQQSGPEMVKPGTSVKISCKASGYTFTDYYINWVKQSHGKSLEWIGDISPNIGGATYNPKFKGKAILTVDKSARTAYMELRSLTSEDSAVYCCTRGGSSYPYFYAMDYWGQGTSVTVSS VL: DIVMSQSPSSLAVSVGEKVTMSCKSSQSLLYSSNQKKYLAWYQQKPGQSPKLLIYWASTRESGVPDRFTGSGSGTDFTLTISSVKAEDLAVYYCQQFYSYPYTFGGGTKLEINR |  | 70.8
